Reference: patent US6699869

System: (D)FPR-PNA

Substance: bovine thrombin (from Sigma)
- Kcat/KM of substrate hydrolysis: thrombin: Kcat/KM=2.20×10^7 M^-1 S^-1
